{"source": "a protein production outcome set (Wang et al. 2014)", "assay": "label from the status in PepcDB records"}
{"sequence": "PLKRSLPPDTAITKTDRVTVKGEEVPYEVTTGTQPVYGDDDTAVASLHYTYYRRSDVDDRSGRPLMISFNGGPGSGSLWMHLGYTSPKHLLISDEGYPVQPYGVEDNNQSIIDVADIVYVNPVNTGFSRVIDDDTDAEQFFGVNADVDYLADWIDTFISRHGRWRSPKYLIGESYGTTRVAGLAGELQNSHWTYLNGVILVSPTGLGMEPAGPSPRSEALKLPYYAATAWYHEQLPDALQSRDLQALLSEVEDYTIEEYIPAVTRGGFVEDARRQAVAQQVARYSGLSEPFVLDHNLAVPADAFWKELLQDEGRTVGRLDSRYEGIDVTNAGSEYDYPAELTAWNHAFTPAINHYLRDDLGFTTDLQYNTFGNVYPWDETENNTGAQLREAMAQNPYLHVMVQSGYYDGATDYFSAKYVMWNLGTRETMRDRLRFEGYRSGHMMYLRSEDLATSNEDIRTFIEESIPDEGTPARYGRNR", "values": [{"measurement": "protein production", "value": "failed"}]}
{"sequence": "PLPEGMQQQFEDTISRDAKQQPTWDRAQAENVRKILESVPPIVVAPEVLELKQKLADVANGKAFLLQGGDCAETFESNTEPHIRANVKTLLQMAVVLTYGASTPVIKMARIAGQYAKPRSSDLDGNGLPNYRGDIVNGVEATPEARRHDPARMIRAYANASAAMNLVRALTSSGTADLYRLSEWNREFVANSPAGARYEALAREIDSGLRFMEACGVSDESLRAADIYCSHEALLVDYERSMLRLATDEEGNEELYDLSAHQLWIGERTRGMDDFHVNFASMISNPIGIKIGPGITPEEAVAYADKLDPNFEPGRLTIVARMGHDKVRSVLPGVIQAVEASGHKVIWQSDPMHGNTFTASNGYKTRHFDKVIDEVQGFFEVHRALGTHPGGIHIEFTGEDVTECLGGAEDITDVDLPGRYESACDPRLNTQQSLELAFLVAEMLRN", "values": [{"measurement": "protein production", "value": "failed"}]}
{"sequence": "PNARSQPSKTLFVKGLSEDTTEETLKESFDGSVRARIVTDRETGSSKGFGFVDFNSEEDAKAAKEAMEDGEIDGNKVTLDWAKPKGEGG", "values": [{"measurement": "protein production", "value": "not failed"}]}
{"sequence": "PRAAGHSEEVLEREASFSLTTIDGEVISLNNVGGDVVILWFMAAWCPSCVYMADLLDRLTEKYREISVIAIDFWTAEALKALGLNKPGYPPPDTPEMFRKFIANYGDPSWIMVMDDGSLVEKFNVRSIDYIVIMDKSSNVLYAGTTPSLGELESVIKSVQGG", "values": [{"measurement": "protein production", "value": "not failed"}]}
{"sequence": "PRPDKCPCEVYHLMKNCWETEASFRPTFENLIPILKTVHEKYQGQAPSVFSVC", "values": [{"measurement": "protein production", "value": "failed"}]}
{"sequence": "PTWMVVNPVAGGGKWLQYEQHVIRELTKKYRLSIRQTDETTSAESLALQAKQSGVNQVIVSGGDGTVTEVASQLVGTDIQLGIIPLGTANALCHVLYGIGMKLSPVEKACEAILAGHCQRIDTAECNQ", "values": [{"measurement": "protein production", "value": "failed"}]}
{"sequence": "PVEEVMPVLEEKERSASYKPVFVTEITDDLHFYVQDVETGTQFQKLMENMRNDIASHPPVEGSYAPRRGEFCIAKFVDGEWYRARVEKVESPAKIHVFYIDYGNREVLPSTRLGTLSPAFSTRVLPAQATEYAFAFIQVPQDDDARTDAVDSVVRDIQNTQCLLNVEHLSAGCPHVTLQFADSKGDVGLGLVKEGLVMVEVRKEKQFQKVITEYLNAQESAKSARLNLWRYGDFRADDADEFGYSR", "values": [{"measurement": "protein production", "value": "not failed"}]}
{"sequence": "PVGWQCPGCTFINKPTRPGCEMCCRARPEAYQVPASYQP", "values": [{"measurement": "protein production", "value": "not failed"}]}
{"sequence": "PVNQVQSSVSWPQNGSLNSVSAPLMSYTPISFDAKIPVASVDKLRKDQDLILGTLPANSEDAGARGLFVRANDDGLQITSHGELVLDLSKRELAQLPADATIAISATEDETTAGIEGDDSTTETVERDVRPIIMGIYTELESNAAADLLNAGLNAHVEINSRFTSSPTLAKYAS", "values": [{"measurement": "protein production", "value": "not failed"}]}
{"sequence": "PWQHFIIGSLFGWVHKETKLRRFKEALIFMGRKNGKTTTISGVANYAVSQDGENGAEIHLLANVMKQARILFDESKAMIKASPKLDKNFRTLRDEIHYDATISKIMPQASDSDKLDGLNTHMGIFDEIHEFKDYKLISVIKNSRAARLQPLLIYITTAGYQLDGPLVDMVEAGRDTLDQIIEDERTFYYLASLDDDDDINDSSNWIKANPNLGVSINLDEMKEEWEKAKRTPAERGDFITKRFNIFANNDEMSFIDYPTLQKNNEIVSLEELEGRPCTIGYDLSETEDFTAACATFALDNGKVAVLSHSWIPKHKVEYSNEKIPYREWEEDGLLTVQDKPYIDYQDVLNWIIKMNEHYVVEKITYDRANAFKLNQELKNYGFETEETRQGALTLSPALKDLKEMFLDGKIIFNNNPLMKWYINNVQLKLDRNGNWLPSKQSRYRKIDGFAAFLNTYTDIMNKVVSDKGEGNIEFISIKDIMR", "values": [{"measurement": "protein production", "value": "failed"}]}
{"sequence": "PWQPPADLSGLSIEEVSKSLRFIGLSEDVISFFVTEKIDGNLLVQLTEEILSEDFKLSKLQVKKIMQFING", "values": [{"measurement": "protein production", "value": "not failed"}]}
